Experimental data taken from article PMC9482650, “Quantitative fragmentomics allow affinity mapping of interactomes” (Nature Communications, 2022).

Tests used:
Assay in all cases: holdup assay
Design in all cases: key: below the threshold = too weak to quantify, mostly under pKd 3.1 to 4
[1] = target: T1, APBA1_1, Q02410
T1 sequence (Q02410 651-752, limits assumed, looked up): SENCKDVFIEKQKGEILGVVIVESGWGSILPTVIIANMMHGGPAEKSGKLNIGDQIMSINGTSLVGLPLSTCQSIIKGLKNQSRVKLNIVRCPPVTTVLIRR

[2] = target: ARHGEF12, Q9NZN5-2
Chain of ARHGEF12, Q9NZN5-2 (Q9NZN5 other isoform, or with tags, fused parts or gaps): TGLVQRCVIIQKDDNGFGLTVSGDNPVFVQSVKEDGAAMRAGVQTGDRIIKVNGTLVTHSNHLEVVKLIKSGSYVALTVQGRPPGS

[3] = target: DLG1_1, Q12959
[4] = target: T2, DLG3_1, Q92796
T2 sequence (Q92796 125-227, limits assumed, looked up): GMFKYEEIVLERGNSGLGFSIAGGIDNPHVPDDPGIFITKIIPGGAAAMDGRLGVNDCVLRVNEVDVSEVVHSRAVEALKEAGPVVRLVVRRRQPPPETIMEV

[5] = target: T3, DLG3_3, Q92796
T3 sequence (Q92796 374-475, limits assumed, looked up): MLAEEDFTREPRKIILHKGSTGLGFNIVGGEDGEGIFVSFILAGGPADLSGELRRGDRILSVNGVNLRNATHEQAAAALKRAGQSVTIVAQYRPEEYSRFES

[6] = target: FRMPD3, Q5JV73
Chain of FRMPD3, Q5JV73 (Q5JV73 12-100): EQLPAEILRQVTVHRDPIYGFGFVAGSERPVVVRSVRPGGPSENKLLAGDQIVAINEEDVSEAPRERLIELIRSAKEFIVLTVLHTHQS

[7] = target: FRMPD4, Q14CM0
Chain of FRMPD4, Q14CM0 (Q14CM0 67-160): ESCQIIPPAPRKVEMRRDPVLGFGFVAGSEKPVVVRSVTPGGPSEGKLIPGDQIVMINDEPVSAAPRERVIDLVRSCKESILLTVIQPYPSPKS

[8] = target: GIPC2, Q8TF65
Chain of GIPC2, Q8TF65 (Q8TF65 112-203): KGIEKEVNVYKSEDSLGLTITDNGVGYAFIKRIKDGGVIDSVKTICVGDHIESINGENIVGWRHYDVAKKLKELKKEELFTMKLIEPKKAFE

[9] = target: T4, GRIP1_3, Q9Y3R0
T4 sequence (Q9Y3R0 247-346, limits assumed, looked up): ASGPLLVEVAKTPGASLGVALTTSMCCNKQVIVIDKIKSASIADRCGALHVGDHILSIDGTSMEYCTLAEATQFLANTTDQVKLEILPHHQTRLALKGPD

[10] = target: T5, GRIP1_5, Q9Y3R0
T5 sequence (Q9Y3R0 568-668, limits assumed, looked up): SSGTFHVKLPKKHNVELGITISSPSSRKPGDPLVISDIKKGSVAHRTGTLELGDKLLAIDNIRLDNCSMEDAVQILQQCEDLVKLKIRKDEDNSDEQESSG

[11] = target: IL16_3, Q14005
Chain of IL16_3, Q14005 (Q14005 1107-1207): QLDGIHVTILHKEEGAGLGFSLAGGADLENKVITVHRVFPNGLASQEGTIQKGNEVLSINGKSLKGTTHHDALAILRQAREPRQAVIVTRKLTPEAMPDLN

[12] = target: IL16_4, Q14005
Chain of IL16_4, Q14005 (Q14005 1229-1329): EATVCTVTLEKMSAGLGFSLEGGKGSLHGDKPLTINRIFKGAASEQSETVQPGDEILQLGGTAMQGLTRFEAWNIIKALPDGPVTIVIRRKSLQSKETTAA

[13] = target: Inadl_3, Q8NI35
Chain of Inadl_3, Q8NI35 (Q8NI35 359-469): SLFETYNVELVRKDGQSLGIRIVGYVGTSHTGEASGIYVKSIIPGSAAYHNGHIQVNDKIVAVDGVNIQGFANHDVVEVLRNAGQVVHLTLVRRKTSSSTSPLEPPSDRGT

[14] = target: Inadl_4, Q8NI35
Chain of Inadl_4, Q8NI35 (Q8NI35 547-651): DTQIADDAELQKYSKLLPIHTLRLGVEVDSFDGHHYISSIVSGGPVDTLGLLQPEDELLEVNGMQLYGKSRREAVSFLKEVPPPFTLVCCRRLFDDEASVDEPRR

[15] = target: Inadl_9, Q8NI35
Chain of Inadl_9, Q8NI35 (Q8NI35 1530-1615): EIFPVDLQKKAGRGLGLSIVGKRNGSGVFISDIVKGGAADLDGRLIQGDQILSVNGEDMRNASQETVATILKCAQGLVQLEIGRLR

[16] = target: LAP2, Q96RT1
Chain of LAP2, Q96RT1 (Q96RT1 other isoform, or with tags, fused parts or gaps): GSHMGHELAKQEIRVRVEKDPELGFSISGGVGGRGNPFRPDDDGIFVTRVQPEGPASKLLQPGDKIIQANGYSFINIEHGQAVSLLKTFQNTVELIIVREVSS

[17] = target: T6, LNX2_2, Q8N448
T6 sequence (Q8N448 334-432, limits assumed, looked up): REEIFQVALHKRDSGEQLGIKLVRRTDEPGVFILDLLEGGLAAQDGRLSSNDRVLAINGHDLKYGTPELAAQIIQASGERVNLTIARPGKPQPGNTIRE

[18] = target: MAGI1_2, Q96QZ7
Chain of MAGI1_2, Q96QZ7 (Q96QZ7 456-580): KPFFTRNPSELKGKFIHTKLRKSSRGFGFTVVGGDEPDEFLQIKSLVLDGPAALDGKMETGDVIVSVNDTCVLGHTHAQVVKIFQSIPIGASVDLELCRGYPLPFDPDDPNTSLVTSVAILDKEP

[19] = target: MAGI2_2, Q86UL8
Chain of MAGI2_2, Q86UL8 (Q86UL8 410-522): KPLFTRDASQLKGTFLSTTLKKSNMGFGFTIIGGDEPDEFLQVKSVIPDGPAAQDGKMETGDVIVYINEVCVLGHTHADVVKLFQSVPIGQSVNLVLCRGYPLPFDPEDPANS

[20] = target: MAGI2_5, Q86UL8
Chain of MAGI2_5, Q86UL8 (Q86UL8 915-1017): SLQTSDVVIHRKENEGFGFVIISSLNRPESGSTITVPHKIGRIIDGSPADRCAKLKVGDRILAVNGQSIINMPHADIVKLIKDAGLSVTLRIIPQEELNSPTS

[21] = target: T7, MPDZ_12, O75970
T7 sequence (O75970 1857-1958, limits assumed, looked up): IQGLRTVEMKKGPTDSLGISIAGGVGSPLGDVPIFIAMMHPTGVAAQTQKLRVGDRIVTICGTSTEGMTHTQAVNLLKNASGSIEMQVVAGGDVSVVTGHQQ

[22] = target: T8, MPDZ_5, O75970
T8 sequence (O75970 695-796, limits assumed, looked up): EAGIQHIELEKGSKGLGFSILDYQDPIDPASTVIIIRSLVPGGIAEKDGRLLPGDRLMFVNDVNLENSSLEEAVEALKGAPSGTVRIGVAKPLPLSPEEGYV

[23] = target: NOS1, P29475
Chain of NOS1, P29475 (P29475 9-101): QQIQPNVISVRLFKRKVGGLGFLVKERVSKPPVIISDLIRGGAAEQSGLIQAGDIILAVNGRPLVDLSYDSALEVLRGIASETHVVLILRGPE

[24] = target: T9, PCLO, Q9Y6V0
T9 sequence (Q9Y6V0 4491-4600, limits assumed, looked up): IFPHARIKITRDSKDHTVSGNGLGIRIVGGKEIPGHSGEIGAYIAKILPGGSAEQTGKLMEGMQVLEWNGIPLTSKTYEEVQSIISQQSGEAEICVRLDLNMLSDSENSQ

[25] = target: T10, PDZRN3_1, Q9UPQ7
T10 sequence (Q9UPQ7 244-349, limits assumed, looked up): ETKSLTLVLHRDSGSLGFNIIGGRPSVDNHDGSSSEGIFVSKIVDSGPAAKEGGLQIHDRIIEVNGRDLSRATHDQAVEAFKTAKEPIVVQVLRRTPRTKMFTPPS

[26] = target: T11, RHPN1, Q8TCX5
T11 sequence (Q8TCX5 508-602, limits assumed, looked up): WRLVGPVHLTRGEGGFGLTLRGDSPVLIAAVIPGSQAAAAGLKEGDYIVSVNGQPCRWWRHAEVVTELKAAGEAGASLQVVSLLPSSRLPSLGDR

[27] = plain residues with an end cap or a label only (N-terminal biotin on a linker: ttds)
[28] = plain residues with an end cap or a label only (N-terminal biotin on a linker: ahx)

In the case of FVETQHQTQV [FAT3, Q8TDW7], the pKd [1, 27] is reported as “below the threshold”, the pKd [2, 27] is reported as 3.88 and the pKd [3, 27] is reported as 4.32. The pKd [4, 27] was 3.85, the pKd [5, 27] was 3.58 and the pKd [6, 27] was “below the threshold”. The pKd [7, 27] was “below the threshold”, the pKd [8, 27] was 3.66 and the pKd [9, 27] was 3.62. For the same binder, the pKd [10, 27] was “below the threshold”, the pKd [11, 27] was “below the threshold” and the pKd [12, 27] was “below the threshold”. For the same binder, the pKd [13, 27] was “below the threshold”, the pKd [14, 27] was “below the threshold” and the pKd [15, 27] was 3.61. For the same binder, the pKd [16, 27] was 3.65, the pKd [17, 27] was 3.75 and the pKd [18, 27] was 3.93. The pKd [19, 27] was 4.02, the pKd [20, 27] was 4.72 and the pKd [21, 27] was “below the threshold”. For the same binder, the pKd [22, 27] was “below the threshold”, the pKd [23, 27] was 3.95 and the pKd [24, 27] was “below the threshold”. The pKd [25, 27] was 3.53 and the pKd [26, 27] was 4.32.

In the case of SAPATLSSRA [PDLIM2, Q96JY6], the pKd [1, 28] is reported as “below the threshold”, the pKd [2, 28] is reported as “below the threshold” and the pKd [3, 28] is reported as “below the threshold”. For the same binder, the pKd [4, 28] was “below the threshold”, the pKd [5, 28] was “below the threshold” and the pKd [6, 28] was “below the threshold”. The pKd [7, 28] was “below the threshold”, the pKd [8, 28] was “below the threshold” and the pKd [9, 28] was “below the threshold”. The pKd [10, 28] was “below the threshold”, the pKd [11, 28] was “below the threshold” and the pKd [12, 28] was “below the threshold”. The pKd [13, 28] was 3.48, the pKd [14, 28] was “below the threshold” and the pKd [15, 28] was “below the threshold”. The pKd [16, 28] was “below the threshold”, the pKd [17, 28] was “below the threshold” and the pKd [18, 28] was “below the threshold”. For the same binder, the pKd [19, 28] was “below the threshold”, the pKd [20, 28] was “below the threshold” and the pKd [21, 28] was “below the threshold”. The pKd [22, 28] was “below the threshold”, the pKd [23, 28] was “below the threshold” and the pKd [24, 28] was “below the threshold”. The pKd [25, 28] was “below the threshold” and the pKd [26, 28] was “below the threshold”.

For SRSRRRETAL [HPV33-E6, P06427], the pKd [1, 27] was “below the threshold”, the pKd [2, 27] was 4.78 and the pKd [3, 27] was 4.5. The pKd [4, 27] was 3.79, the pKd [5, 27] was 5.07 and the pKd [6, 27] was “below the threshold”. The pKd [7, 27] was 3.87, the pKd [8, 27] was “below the threshold” and the pKd [9, 27] was “below the threshold”. For the same binder, the pKd [10, 27] was “below the threshold”, the pKd [11, 27] was “below the threshold” and the pKd [12, 27] was “below the threshold”. The pKd [13, 27] was “below the threshold”, the pKd [14, 27] was “below the threshold” and the pKd [15, 27] was “below the threshold”. For the same binder, the pKd [16, 27] was “below the threshold”, the pKd [17, 27] was “below the threshold” and the pKd [18, 27] was 5.67. For the same binder, the pKd [19, 27] was 5.31, the pKd [20, 27] was “below the threshold” and the pKd [21, 27] was “below the threshold”. The pKd [22, 27] was “below the threshold”, the pKd [23, 27] was 4.03 and the pKd [24, 27] was “below the threshold”. For the same binder, the pKd [25, 27] was 5.93 and the pKd [26, 27] was 3.81.

In the case of ADENEQVSAV [RAPGEF6, Q8TEU7], the pKd [1, 28] is reported as “below the threshold”, the pKd [2, 28] is reported as 3.83 and the pKd [3, 28] is reported as “below the threshold”. For the same binder, the pKd [4, 28] was “below the threshold”, the pKd [5, 28] was “below the threshold” and the pKd [6, 28] was “below the threshold”. The pKd [7, 28] was “below the threshold”, the pKd [8, 28] was “below the threshold” and the pKd [9, 28] was “below the threshold”. The pKd [10, 28] was “below the threshold”, the pKd [11, 28] was “below the threshold” and the pKd [12, 28] was “below the threshold”. The pKd [13, 28] was 3.63, the pKd [14, 28] was “below the threshold” and the pKd [15, 28] was “below the threshold”. The pKd [16, 28] was “below the threshold”, the pKd [17, 28] was “below the threshold” and the pKd [18, 28] was 3.83. The pKd [19, 28] was “below the threshold”, the pKd [20, 28] was 4.38 and the pKd [21, 28] was “below the threshold”. The pKd [22, 28] was “below the threshold”, the pKd [23, 28] was 3.61 and the pKd [24, 28] was “below the threshold”. For the same binder, the pKd [25, 28] was 3.79 and the pKd [26, 28] was 4.42.

For SGGKRKETLV [NET1, Q7Z628], the pKd [1, 27] was “below the threshold”, the pKd [2, 27] was 3.74 and the pKd [3, 27] was 5.09. For the same binder, the pKd [4, 27] was 4.61, the pKd [5, 27] was 5.05 and the pKd [6, 27] was “below the threshold”. The pKd [7, 27] was 3.65, the pKd [8, 27] was “below the threshold” and the pKd [9, 27] was “below the threshold”. The pKd [10, 27] was “below the threshold”, the pKd [11, 27] was “below the threshold” and the pKd [12, 27] was “below the threshold”. For the same binder, the pKd [13, 27] was “below the threshold”, the pKd [14, 27] was “below the threshold” and the pKd [15, 27] was 3.66. For the same binder, the pKd [16, 27] was “below the threshold”, the pKd [17, 27] was 4.66 and the pKd [18, 27] was 5.72. The pKd [19, 27] was 5.87, the pKd [20, 27] was 4.56 and the pKd [21, 27] was “below the threshold”. The pKd [22, 27] was “below the threshold”, the pKd [23, 27] was 4.09 and the pKd [24, 27] was “below the threshold”. It also gave a pKd [25, 27] of 4.67 and a pKd [26, 27] of 3.65.
